What is called Kd is the concentration at which binding is half-saturated. Lower therefore signals higher affinity.

Kd data for one molecule are collected here from article PMC6204036, “Myostatin and activin blockade by engineered follistatin results in hypertrophy and improves dystrophic pathology in mdx mouse more than myostatin blockade alone” (Skeletal Muscle, 2018).

The assay has as its target T1, FS-EEE-mFc (human, UniProt P19883 30-344, K76 mutagenized to glutamic acid | K81 mutagenized to glutamic acid | K82 …).
T1 construct: follistatin FS315, human, with K76, K81 and K82 changed to glutamic acid; FS315 cDNA (Clontech) cloned in frame to murine IgG1 Fc cDNA; also called engineered follistatin; FST-EEE-mFc
Put plainly: SPR; surface plasmon resonance method as in ref. 48; which partner was immobilised and the conditions are not told. The note with it: both partners purified. In general terms: SPR reads the build-up and loss of mass on a sensor chip optically.

T1 sequence (P19883 other isoform, or with tags, fused parts or gaps with the stated changes): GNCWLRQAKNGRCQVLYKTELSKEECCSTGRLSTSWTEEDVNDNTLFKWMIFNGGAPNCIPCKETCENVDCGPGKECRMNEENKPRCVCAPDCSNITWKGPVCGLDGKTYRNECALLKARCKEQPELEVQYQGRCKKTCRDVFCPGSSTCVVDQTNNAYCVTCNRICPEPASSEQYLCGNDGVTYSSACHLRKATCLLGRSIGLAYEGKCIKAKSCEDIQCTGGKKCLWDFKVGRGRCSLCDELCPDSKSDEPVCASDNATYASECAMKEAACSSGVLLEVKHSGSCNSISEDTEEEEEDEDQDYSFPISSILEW

B1: activin A (ligand, UniProt P08476 311-426, looked up)
chain: GLECDGKVNICCKKQFFVSFKDIGWNDWIIAPSGYHANYCEGECPSHIAGTSGSSLSFHSTVINHYRMRGHSPFANLKSCCVPTKLRPMSMLYYDDGQNIIKKDIQNMIVEECGCS
notes: activin A (inhibin beta A chain), the ligand used in SPR
Turning to B1, the Kd amounted to 6.1 pM.
